Experimental data as given in the DeepSol protein solubility set.

Experiment: soluble on expression in E. coli; label from the status in PepcDB or PDB records

Sequence | soluble on expression in E. coli
MAHHHHHHMDTNDYENLRFYNYIPVNKELKKSCIPCPDTEDYEAKLNKEFDEELTKVFQGNILDQINAKDINADLKRDLKKKLDILSKKTDKAVVQLIKQKINENKNKENITNTNDDEKEKETMTLNFDKKGDKNFGHVLYKTLDKLDVMDDESD | soluble
MAHHHHHHMECGYRNEGKFHQVVLNIKEKIEKHDLSKWKDIVKPEEGPKYDEYFERLLRGGTPEKDSHEEDSNEKHTHETHDLPAEQAEETPPEVCEPPGDEKNKTEFQLNKEFFDKISNKEKFYFLLNIKEMMETSWLLAQKRLEGIKLEEKSKPVNVQDLLNYSQKIADTTCAPPECDNINDKIMHQEYYPNYHFLNFVNVEEIHLSKLFQLQKYSTVCFPPIITIQEGKDNMLAIDITCSTPHATIYYRMNDDPNEQIYNTDDKPQIRKRKKVNVYAWSVKDGHIKSRVSCISKSYKVEEDDSFPLSDNLPNKEQGEQQTGSSKMGVEANAPGKPSQITNVFKNLGFLLSRKKEKTEEPSSNGESSSEG | not soluble
MAHHHHHHMEDAYAGLCSQSVFEPKMDFTLCINKSIKLFLKDINISKYDKNNVDNKKDVNTSDTKVIETSNDQNQNNQNDQNDQQSDILNNQHLLKENEAFLNGYLYFSRIGHNINLLLNELSSIKKDFRFLNKETRKKIKKFKQVKNKNIIYKDLLQDIKEKRKRKEIYEKLSIEIKKLDEVKKVQEKQKIEKDEINNLEHKILNIENIIKSNNDHIQETINQINKIVSENIQI | not soluble
MAHHHHHHMEPNADEPKKTSSVRQLLRQQRELQEMRKFGLAPLAVDTETHQEISPNIPEFISRAPWYYGATGPTLVHQRKQGDSATEVSDEVLDEKVDRIVVKGQASRFTAGACKNCGSRTHKTSECFQAKKKVGSVYTNRVTGSDIETHQEAKTYSQKRDRFVGEVGIDLMRGVRQDQQDDNVDVAAPATARHRPEDVFGSRTAQHGGVEVKELPKYLHNLDQQDGLFFDPKTGSMRANPNSGDSTKAFRGDLERYRTGDYYNYVESQYRFLTGQSRSFVDFEFDDAMRRAREQQQEPQQQEQNSTRGPVTKVLTETPQDVLLRSLYGASQPKFDSDVLPSFTTESKTSAPSSSPAPPVDALATTATATVTAHSSVQAASLSWVTTRNGHAAVYGSYFDPIHFRWGYACCKRMGKDTTGCSATHA | soluble
MAHHHHHHMEQFLNQVAASNKTVKCIKGALQIYDTYGEVFSLVHERRYEEAGIICTHFSDHIGQLFLGTTDGNCLVYYHDERSGDEQRSGVEERSGDDLYGDADRCGVPPVGRKKKGGVLEYLHKGVKRKRERASFYTNSEHIYNLDSLPKEIKITDAGDVLIKKDLINAKVKMNPKLSSFTANAYEKKRQVGMYSKYIVDANPSGKDPSSSQTNKGNEYEEEDIVEKLRKREQSKQGGDYFMNAYKYTQPSAIIDYSSGEEQEYSQLLKKPKCPQCGVKNCVCGFMRSGGRRAR | not soluble
MAHHHHHHMERAHGAKDGGSKTLFVTVGSHQFDDLIKQIDTKDFHSFLRRAGFAKMSMQIGQGTYEPQLIYRCSGNGEESLLKRVKFFRYKKDLLKDFQKADLIVSHAGAGTTLEGLRMKKKMLIVVNDKLMGNHQLEFAEFLRSRNYLEVCECLGDLRAHVLRCLRTPAFAPFPAPRPEPFLRDLRALMDGAA | soluble
MAHHHHHHMFCFSRGLWMRHIGQDVPKRHTHFVLESRLMYEKSFRDCWLHSVCRAISQLDEPLSKTVVGTHQKMLQRKVTCFQYNQYGLFKTPYYRLANVDRYHAVQGVAGTREWVPYVNVSYWTMNKMVRGGNLLVHRVHYTGWGTDSHLKKGGWEHRWNKVLQRNVLQYSRI | not soluble
MAHHHHHHMFCNLNVCLAFLSSQYGKENMNARKPLAVSAGTNSRSGEGDWKSTMRSFREGVRCLGEENEALRTVRSDLDAISRKLTEKMNSLVEENGSFHKSMSTLLDDERRKVSIITDQNENLLHKLEELRKEYDDANKEISRLTDLVHTEKSRNNSVVGLFEKKLAEKEDEYQTELRLREQSLEKLKTQLEEKCSAYEAQLTDRDNLLQTERCQWKLQKEVYEKEIERLLSQVGKFAITQRSSSQQSTLGVDVAHAKPPLAPVPPPAPTDEEGDRAVVKKRRLEAVRQQRRLKENDKNDI | not soluble
MAHHHHHHMFRAARLLRGVSPFSVFLMDQKNNPSLQGVSIAKRGKMLSKMYKELSQQQRRDLQKRAEVHPSLRKSKRARPPRKTEFAEFVRQNYKVVQGLNYRKRFSALSQLYELHKPIEVQVTKALKEAKAKKVTSAKTAVKKAATKSKTAKRAKGGKSTPKKSTGKK | soluble
MAHHHHHHMGADIKLLLIDFDGTLFVDKDIKVPSENIEAIKEAIEKGYMVSICTGRSKVGILSAFGEENLKKMNFYGMPGVYINGTIVYDQIGYTLLDETIETDVYAELISYLVENNLVNQTIFHRGESNYVTEDNKYSDFLQKMYSENRSIIIRHNEMLKYRTMNKLMIVLDPSESKTVIGNLKQKFKNKLTIFTTYNGHAEVNKLGHDKYTGINYLLKHYNISNDQVLVVGDAENDIAMLSHFKYSFAVANATNSAKSHAKCVLPLSHKEGAVAYLLKKVFDLKK | not soluble
MAHHHHHHMGAVDYEVNETHLTGAQALSDYLLDTWYVHDMPRYGAVSCIDRNVTALLRFADEWRGTNVNVFLYNSSSHHQAGLSLATYYDLFIKSFLGRDSAFMRYEAELFNEPASQSQLGFIFIGAPGGRSAGGLPGRAVGRHGPCGAARGVDCDPARRRALLRCADDAPPGGGGGACEHCGDHGARVRAVCRRQGTPEEQVRQRLRGERAAGVGAARGALCVVHAGGVPRRCAERRRGSAVRVPAAARSRLR | not soluble
MAHHHHHHMGDKVEYGTSTVKSLGDTCRLVRALQGSTDPRLVSINSLLEGVVKSAQSLVKGTDSQKRFNMEFAEFCGVALMGLPDLEDAVDDLRVQENCANAAVNDQDDFDGISPAIFMREIIGYVVSRNTNVGAQYLEHIGRSAMAKFAGQESSEVTPKRLKSGMNDERHVQSVARKKQRTRPVAGKMGRAPTDDKSGVAATGRVFGVDGDEPKQRYKQSMPKGPPMLSRWVKPWTLLNQRVQGIILEHASNENTRRPPVCNYPPGKRSNITPFDICTAPSGPEMLNLWHARESMTSSSVGHCDPVGVAFDETALDHDSKGSEPSFFPSGDKKVCAFVSSELMANLVRYGVSSLEAPFKGAK | not soluble
MAHHHHHHMGGCLISPSAEMQLEENTTSPFGHRRPIFGLFGAGEVTGGVHGGNRLGGNSLLECVVFGRIAGDRAATILQNNDTYLWGEKWSQLKLRNVMEDENGFMWLHFTFPSSFQVSGLEALQGVVLRSVSGDKSVEVYTPYTLPDDEGVVGIALSPWLTGNGVHWLRTLQPGDTVEMKAAERVERNYMNMLKAPHKVVIATSRGIAPMMQILRATMERPEKDATIHLIYIADRASSIPYREKLKALAEASPERFRCTFVLQHPQPGWSGAVNYLDEIAASVFPDPAVVIFLCGASEETRSIKSSLLDMGHDVATIATVE | not soluble
MAHHHHHHMGGQSSVTTTPEQIPVNGKSLDWGPPPDDIPEEERDNEELVLQTWAFCKAKPSPAQNYRSDVEERKRRQSMLWRKRASFIELDCGEDSFFVSNTYKVIGVADGVGGWRDEGVDASHFANSLMENAKHFSETHRKELNPEVILQSAFDKVLHDKVVKAGSSTACVVALQKDSSGEHYLDVANVGDSGVLVVRNRQVQHRVHEKVHGFNAPFQLAVLPPHLQGRAFSDRVSDATREKIPVQRGDVVITGTDGLFDNRFNISLAADAGWIGHVQGSALERVPLVGLLLGPIFANDKVAYVDPQRVAQRIVQDAYKTSLDESAHTPWASMLRKFGVEDAKGGKVDDITLVLSRVTTREELNATSTW | not soluble
MAHHHHHHMGIGWEKLDNWEDVPDAGGKYGPLRGPSLVDLQGHVFAIAEAHCKDGGDCSDVGFTGIASKYLDLIGVADPTEILTADASIFGADLLKEGSEVISARNGITRPTTLVLGDSVYVLPGNYSHTGPQVGGTNERGLLLLKGTLTDEGGRKKIKWNETHVVEPQGRGDSRSLTELVGGGGSGAVLRDGTLVFPMQAKDKDGTSVLLSMRFPNSGNKWELSSETPGKGCRDPTLVKWEEKKDDERLFMMAHCAGDYYDVYRSTPHGVNWYTSGQPITRVWGNSHNRKGTVSGVDPPPQSLRKRS | not soluble
MAHHHHHHMGIVGEYEILETLGTGAFSKVKLVRHLPTNVYFVAKIIQKSNQQVETDVRLEISILRRLRHRNIVQLIEILESSNNYYIILEPVLGGDVCSLVLSQEGGLAEDFVANLFFQLVAGLRACHQNGVAHRDLKPENLLLTGEKVLKISDFGLSRLHKQSNFHAEAEEYAHTLTGTLAYVAPEVLDGNYDAFKADIWSIGCILYVMLTGQFPFGPTTDACELGERIKDGRVCEMPKSVSENARELTMWLLSRDPASRPSLDEVATHAFLRQHVPAKNIMALTRSRQAKILAPDPSEFSSAIPEEKQVANS | soluble
MAHHHHHHMGKLQAPCSPTVCGYPLPYPRSLSHNLFNVIQDTRRKGKTNTEQSELKNEGDPLTLSPIVPKVDTSPATESKGRRREEKPLAHEGQLLKHKLDVWRDLFLASAAQQLAASGHPRSRRDDAGNVFYSNISCYLKEGCIVKSEDTDLRTGPRDHLRVQGAYLSHLAPEAFANLHVTLDGNTFVLRNVQRTSPTIKQISEELCEERGIRLLPTAMQKKVAYLVSQVSTSTKERAGTISGKKGLATSKWKHTNSLQTCKHSLNMELPEVTYRSRVLSTIREGAYGSPFQKGCKM | not soluble
MAHHHHHHMGLYKSIYFVDGGCCAVKFNAITGLKNRTYGEGANFAIPFLETPVVFDIRNKPTEVLTATGSRDLQTVNLAVRVLYQPHVSALPDIYRNVGMEYAETVLPSLVNEIIRAVIAQFNASDLLVKRPEVSNRIGVMLAERAKRFHIDITDVSITQMSFGKEYTSAVEAKQVAQQMAERAKWRVEQAEQEKEGAILLAKGEAEAAKLIGMAVQKNPAFITLRSLEASRTIADLMRQKGSGSFYIDSDTLSLNTQTIGH | not soluble
MAHHHHHHMGNGASVGENRHSQLFQQGYKSLQEGRYTYAEIYYDQAIERHEGHSFWTRLDDLIEWERRDKAGQKGTDAKQKTAYRDGGQEEAAFPEVRKDSLKEENEVNVEMGEAAGVGGSGKIEIPLDSRLADVVDYLVLRADIAESYMAEGRYEEATPHMDFLSSHTRVMLKFLQIARMTKAEESANSSNPLEGSTADAGADNAGGGNRRAHQGFMMVSDVERDSILDCFEQFLRMHWVSAMANSVFIVSERFKKGKSEKKHKKELDTAVVACAKIQEELYNVAKRRARSLSNSVVLSFLEGIMEELDAESSTTSITNERMGTANGKTRTNTLFEEQNNRSTGNRSANEIDMLTDRDECPIKVHLQMVYDRRSLCREVPAPQQAPTLRYITWIDDEIRRVVPGTNYNLEIQCGMVDEKRKKQLQKRSLKFAAQRNCNYNDRVLLGKSFDEENALLLFPVFLIQADVQFELGAATKGINALDIVDKLSTQLYGVGSLERQSIMRSVMESRKRGGSLFMMFED | soluble
MAHHHHHHMGQDQSRAKACQLGQAETGGTDRSVSAGSASAAPWEAPVSLAGVEGFQVVRLLPDSPAHKAGLIPFFDIVTALDKVLLESEGKAALSFFKSYVANHRDQPVCFTTFNLYSRTYRDVYCVPSDEWGGGGLLGCSIEWTRADACPERCVHVVDVLEGSPAACSTELQANRDYIIGMQTVQETLITLIKSQKDFYCRLEAWHEEQRWALERKQFFPNERVEVPHVLLFLVYNSESNTIEEVEVEMGTNPEAAVGISVATGLLHIIPSVATADLAVGASLPVMSKFASVGHSVVTPTRAQQQEHQLLQDVSLTPAVGAAPQPREQSQESTGSAQPLPSLPLPQEAHARCAVVDSPEVHTMTNPHEPPMNSCPQPCPPRPQLQQQLTEAALYSMPSLASFNVAPPPRHDAAGGTAAAAVEMGQKPFNPFAEEASPDYDVLEGAPLAHEGVMAAEHHLGQHAPTMEQPYSSSYPPLSSQSPPLSGSLPAQMNGSHNPATALPSYSAPPPPPQQLHVTTMPTFSSQRMPPPLQFPVFPGAAAAKRAPA | not soluble
